A short description of data set [1]: Thermal denaturation by differential scanning fluorimetry (DSF). It counts as physicochemical. The following applies: for melting temperature (Tm): N-EGF5, 5 μM in HBS. The protocol: WT DLL4 and Delta^MAX (N-EGF5) were diluted at 5 μM in 20 μL of HBS buffer, and then combined with 10 μM (5×) SYPRO Orange (ThermoFisher Scientific) prepared in 100% DMSO (final DMSO concentration was 0.1%). This mix was equilibrated at room temperature for 30 min. Proteins were analyzed in a 96-well microtiter plate using a StepOnePlus RT-PCR system (Applied Biosystems) applying a continuous heating gradient from 25 to 99° C. with a step of 1% of temperature/min. Data was normalized and represented as the mean of three independent technical replicates. Similar Tm values were obtained for the replica measurements.
In general terms: DSF heats the sample and reads unfolding from a dye or from intrinsic fluorescence.

Data set [2] concerns Notch1. As to the kind of experiment: Notch activation with ligand-oriented coupling on streptavidin plates (CHO-K1 N1-Gal4 reporter). In kind it is cell-based. Conditions: for EC50: C-terminally biotinylated, streptavidin-coated plates (oriented coupling), 24 hours; for maximum level of Notch1 activation, oriented coupling versus non-specific adsorption: FIG. 3B. The protocol: For CHO-K1 N1-Gal4 reporters, on day one, tissue culture 96-well plates (Coastar) were pre-treated with 100 μL of streptavidin at 10 μg/mL (VWR) for 1 hour at 37° C., washed three times with 200 μL DPBS (Corning), and blocked with 100 μL BSA 2% (VWR) for 1 hour at 37° C. Excess BSA was removed by washing three times with 200 μL DPBS (Corning), and 100 μL of DPBS containing biotinylated DLL4 proteins were coupled to streptavidin for 1 hour at 37° C. (2-fold serial dilutions starting at 50 nM). Non-coupled DLL4 proteins were removed by washing three times with 200 μL DPBS. Next, Notch reporter cells in culture were detached with trypsin-EDTA 0.25% (Gibco), and 30,000 cells in α-MEM media (200 μL) were added into individual wells. Assay plates were incubated for 24 hours at 37° C., and 5% CO2. On day two, CHO-K1 N1-Gal4 cells were washed with 200 μL DPBS, detached with 30 μL of trypsin-EDTA 0.25%, and 200 μL of α-MEM media added. Cells were resuspended and Notch activation was measured as a function of fluorescence by flow cytometry (BD Accuri C6 plus). CHO-K1 N1-Gal4 cells and lacking-ligand wells were used as a negative control. The measurements represent the mean fluorescent intensity as percentage of Notch activation±s.d. of three biological replicates. Notch activation was reference-subtracted from a well coated with a non-related control protein (PA domain of RNF128).
Notch1, sequence (P46531 19-1664 limits assumed): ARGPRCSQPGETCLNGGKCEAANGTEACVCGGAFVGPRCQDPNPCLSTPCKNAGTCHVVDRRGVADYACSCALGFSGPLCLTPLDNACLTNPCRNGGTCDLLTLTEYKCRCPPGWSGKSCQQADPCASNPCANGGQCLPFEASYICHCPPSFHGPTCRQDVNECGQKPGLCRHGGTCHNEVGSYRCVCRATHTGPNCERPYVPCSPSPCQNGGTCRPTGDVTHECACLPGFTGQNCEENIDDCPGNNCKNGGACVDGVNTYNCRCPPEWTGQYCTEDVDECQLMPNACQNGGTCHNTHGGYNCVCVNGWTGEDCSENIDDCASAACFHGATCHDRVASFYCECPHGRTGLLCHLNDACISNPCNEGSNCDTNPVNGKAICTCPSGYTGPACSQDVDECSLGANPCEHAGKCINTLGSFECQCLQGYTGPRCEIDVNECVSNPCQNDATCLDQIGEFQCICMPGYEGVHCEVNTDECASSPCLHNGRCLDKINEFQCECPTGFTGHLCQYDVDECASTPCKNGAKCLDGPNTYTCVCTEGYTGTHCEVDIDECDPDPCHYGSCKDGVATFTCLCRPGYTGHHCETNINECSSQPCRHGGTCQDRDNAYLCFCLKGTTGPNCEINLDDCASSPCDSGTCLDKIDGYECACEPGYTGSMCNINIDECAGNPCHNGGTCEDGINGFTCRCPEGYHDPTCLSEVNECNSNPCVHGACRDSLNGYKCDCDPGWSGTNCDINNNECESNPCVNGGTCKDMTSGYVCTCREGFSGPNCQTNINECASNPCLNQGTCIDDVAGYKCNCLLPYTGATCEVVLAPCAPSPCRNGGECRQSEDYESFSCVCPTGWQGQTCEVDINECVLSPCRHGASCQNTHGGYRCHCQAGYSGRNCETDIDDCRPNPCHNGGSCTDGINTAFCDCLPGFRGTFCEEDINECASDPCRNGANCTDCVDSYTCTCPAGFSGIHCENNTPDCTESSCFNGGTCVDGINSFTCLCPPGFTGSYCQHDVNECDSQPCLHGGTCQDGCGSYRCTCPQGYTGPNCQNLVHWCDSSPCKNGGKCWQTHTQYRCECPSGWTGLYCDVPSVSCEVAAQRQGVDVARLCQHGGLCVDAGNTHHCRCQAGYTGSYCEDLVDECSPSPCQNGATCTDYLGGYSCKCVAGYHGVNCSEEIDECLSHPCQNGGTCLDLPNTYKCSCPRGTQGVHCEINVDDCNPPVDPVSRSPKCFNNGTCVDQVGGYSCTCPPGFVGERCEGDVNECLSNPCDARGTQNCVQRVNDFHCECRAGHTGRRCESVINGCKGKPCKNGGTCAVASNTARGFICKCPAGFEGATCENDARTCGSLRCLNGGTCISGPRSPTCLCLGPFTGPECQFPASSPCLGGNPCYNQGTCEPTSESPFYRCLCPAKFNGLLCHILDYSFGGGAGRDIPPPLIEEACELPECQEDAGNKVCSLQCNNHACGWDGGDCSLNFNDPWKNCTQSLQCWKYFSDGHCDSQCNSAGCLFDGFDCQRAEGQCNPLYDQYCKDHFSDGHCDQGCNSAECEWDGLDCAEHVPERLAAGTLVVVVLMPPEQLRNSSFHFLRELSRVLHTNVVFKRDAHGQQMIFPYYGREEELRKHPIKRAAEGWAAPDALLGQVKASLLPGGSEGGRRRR
Notch1, sequence (P46531 1665-1756 limits assumed): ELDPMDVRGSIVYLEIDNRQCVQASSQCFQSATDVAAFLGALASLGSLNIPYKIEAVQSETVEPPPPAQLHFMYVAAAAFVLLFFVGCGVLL

Data set [3] has as its system Notch1. Description: Notch inhibition assay with soluble antagonists and WT DLL4 coated plates (CHO-K1 N1-Gal4). It counts as cell-based. The protocol:
For CHO-K1 N1-Gal4 reporter cells, on day one, biotinylated WT DLL4 was pre-coated in 96-well plates at 50 nM following the same protocol described above. Next, CHO-K1 N1-Gal4 cells were detached with trypsin-EDTA, washed, and diluted at 200,000 cells/mL in α-MEM media. Ten-fold serial dilutions of non-biotinylated DLL4 ligands (N-EGF5) were prepared in DPBS starting at 600 nM. Next, soluble inhibitors were mixed in ratio 1:1 with CHO-K1 N1-Gal4 200,000 cells/mL stocks for 15 min at room temperature to pre-block Notch receptors. Two hundred microliters of inhibition reactions containing 20,000 reporter cells were added to WT DLL4-coated wells, and plates incubated for 24 hours at 37° C. and 5% CO2. When DAPT (gamma-secretase inhibitor, Sigma) and BB-94 (ADAM metalloprotease inhibitor, Sigma) were used, stock solutions were prepared at 100 μM in 8% DMSO. Appropriate DMSO controls were included to test Notch activation and cell viability. Final DMSO concentration in the experiment was kept below 1%. For comparisons of Delta^MAX with DAPT and BB-94, soluble inhibitors were serially diluted in DPBS using 9-folds, incubated with CHO-K1 N1-Gal4 reporter cells, and added to wells as described above. On day two, assay plates were washed with 200 μL of DPBS, CHO-K1 N1-Gal4 cells detached with trypsin-EDTA, quenched with 200 μL of α-MEM media, and Notch activation measured by flow cytometry (BD Accuri C6 Plus). The data represent the mean fluorescent intensity as percentage of Notch activation, relative to Notch activation in the absence of inhibitors±s.d. of three independent biological replicates.

One may read the EC50 as the concentration needed to bring the measured effect to its halfway point. As usually defined, the IC50 is the concentration that gives 50% inhibition.

Where two headings read alike, the source gives them in different places.

B1: Delta^MAX: engineered human DLL4 consensus variant with 10 mutations combining DLL4.v1 and DLL4.v2 mutations; sequence matches SEQ ID NO: 4/10 (protein)
chain: SSVFQLQLQEFINERGVLASGRPCEPGCRTFFRVCLKHFQAVVSPGPCTFGTVSTPVLGTNSFAVRDDSSGGGRNPLQLPLNFTWPGTFSLIIEAWHAPGDDLRPEALPPDALISKFAIQGSLAVGQNWLLDEQTSTLTRLRYSYRVICSDNYYGDNCSRLCKKRNDYFGHYVCQPDGNPSCLPGWTGEYCQQPICLSGCHEQNGYCSKPAECLCRPGWQGRLCNECIPHPGCRHGTCSTPWQCLCDEGWGGLYCDQDLNYCTHHSPCKNGATCRNSGPRSYTCTCRPGYTGVDCELELSECDSNPCRNGGSCKDQEDGYHCLCPPGYYGLHCEHSTLSCADSPCFNGGSCRERNQGANYACECPPNFTGSNCE
For B1, in data set [1], the “increase in Tm relative to WT DLL4 (ΔTm)” value is 11 °C and the “melting temperature (Tm)” value is 58 °C. Besides, in the data set with Notch1 [2], the concentration giving a half-maximal response (EC50) came to 1.7 nM and the “maximum level of Notch1 activation, oriented coupling versus non-specific adsorption” value is listed as “higher maximum level”. Further, the IC50 with Notch1 [3] (comparison with DAPT and BB-94, plates coated with 50 nM WT DLL4, FIG. 4B, read-out: IC50 for inhibition of Notch1 activation) worked out at 1 nM. Moreover, in the data set on Notch1 [3] (ratio of IC50), the “potency relative to BB-94” value is 1,000 fold and the “potency relative to DAPT” value was 40 fold. The IC50 in the data set with Notch1 [3] (soluble ECD, plates coated with 50 nM WT DLL4, 24 hours, FIG. 4A, read-out: IC50 for inhibition of Notch1 signaling) is 0.6 nM.

B2: WT DLL4: human wild-type Delta-like 4 (N-EGF5, residues 27-400), SEQ ID NO: 1 (protein)
chain: SGVFQLQLQEFINERGVLASGRPCEPGCRTFFRVCLKHFQAVVSPGPCTFGTVSTPVLGTNSFAVRDDSSGGGRNPLQLPFNFTWPGTFSLIIEAWHAPGDDLRPEALPPDALISKIAIQGSLAVGQNWLLDEQTSTLTRLRYSYRVICSDNYYGDNCSRLCKKRNDHFGHYVCQPDGNLSCLPGWTGEYCQQPICLSGCHEQNGYCSKPAECLCRPGWQGRLCNECIPHNGCRHGTCSTPWQCTCDEGWGGLFCDQDLNYCTHHSPCKNGATCSNSGQRSYTCTCRPGYTGVDCELELSECDSNPCRNGGSCKDQEDGYHCLCPPGYYGLHCEHSTLSCADSPCFNGGSCRERNQGANYACECPPNFTGSNCE
B2: in data set [1], the “melting temperature (Tm)” value came out at 47 °C. For the same molecule, in the data set on Notch1 [2], the 50% effective concentration (EC50) amounted to 16 nM and the “maximum level of Notch1 activation, oriented coupling versus non-specific adsorption” value was “higher maximum level”. Also, the “reduction of reporter activity” value in the data set on Notch1 [3] (soluble, highest concentration tested (300 nM)) is reported as around 25%.
